These results are taken from US20230018670A1.

This assay addresses mB7H3 (endogenous mouse B7H3 on B16 and B78 cells) (mouse) (UniProt Q8VE98). Kind of assay: flow cytometry on B16 cells (no GD2, mouse B7H3), 1 ug antibody per million cells, GAH PE; anti-GD2 antibody as control.

Sequence of mB7H3 (endogenous mouse B7H3 on B16 and B78 cells) (mouse) (Q8VE98 29-316 limits assumed): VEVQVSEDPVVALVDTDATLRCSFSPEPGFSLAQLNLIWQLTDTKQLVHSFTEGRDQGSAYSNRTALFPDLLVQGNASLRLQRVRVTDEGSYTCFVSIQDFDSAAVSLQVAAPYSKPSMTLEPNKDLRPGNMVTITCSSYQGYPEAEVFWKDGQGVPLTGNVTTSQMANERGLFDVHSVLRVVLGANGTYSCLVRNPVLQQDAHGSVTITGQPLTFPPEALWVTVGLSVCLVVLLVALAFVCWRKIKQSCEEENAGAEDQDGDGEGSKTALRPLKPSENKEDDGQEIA

For the substance Invenra Dinutuximab (antibody), the MFI worked out at 1 MFI.
